Experiments:
[1] = reported value for Adcetris; cited from earlier work
[2] = Rat safety study with cAC10 ADCs 115, 116 and Adcetris; format: in vivo, Wistar rats; conditions: as in legend of FIG. 19a-c: 115/116 at 40, 60, 70 or 80 mg/kg, Adcetris at 15, 20 or 40 mg/kg, mean body weight
Protocol: […] The test items were administered via intravenous (bolus) injection using a microflex infusion set introduced into a tail vein (2 mL/kg at 1 mL/min). One group of animals was treated with vehicle (control). After dosing, all animals were maintained for a 12-day observation period. Surviving animals were euthanized on day 12. Each animal was weighed at the time of randomization/selection, prior to dosing (day 0) and on all subsequent days up to day 12. Any individual animal with a single observation of >30% body weight loss or three consecutive measurements of >25% body weight loss was euthanized. All animals (including any found dead or killed moribund) were submitted to full necropsy procedures. Histopathological examinations of the liver, spleen and sciatic nerve was performed for all animals. Blood samples (including for animals killed moribund) were collected and subjected to determination of both haematological as well as serum clinical chemistry parameters.

[3] = system: Trastuzumab having high-mannose glycans; assay: Trimming of high-mannose trastuzumab glycans by EndoSH; format: biochemical; conditions: 1 w/w % EndoSH, 37° C., after 3 hours, 25 mM Tris pH 8, MS analysis
Protocol: Trastuzumab having high-mannose glycans (obtained via transient expression in CHO K1 cells in the presence of kifunensine performed by Evitria (Zurich, Switzerland)) (14 mg/mL) in 25 mM Tris buffer pH 8, was trimmed using a concentration of either 0.1 or 1 w/w % EndoSH. The reactions, 350 μg high-mannose trastuzumab (25 μL) and the appropriate amount of EndoSH, were stirred at 37° C. and analyzed by MS analysis over time, 1-3 hours. Samples were subjected to Fabricator treatment prior to analysis.

[4] = system: Trastuzumab; assay: Trimming of trastuzumab glycans by EndoSH; format: biochemical; conditions: 0.1 w/w % EndoSH, 37° C., after 1 hour, 25 mM Tris pH 8, MS analysis
Protocol: Trastuzumab (obtained from Epirus biopharma (Utrecht, The Netherlands); 14 mg/mL) in 25 mM Tris buffer pH 8, was trimmed using a concentration of either 0.1 or 1 w/w % EndoSH. The reactions, 350 μg trastuzumab (25 μL) and the appropriate amount of EndoSH, were stirred at 37° C. and analyzed by MS analysis over time, 1 to 3 hours. Samples were subjected to Fabricator treatment prior to analysis.

Molecule | MTD (reported) [1] [mg/kg] | MTD [2] [mg/kg] | conversion to the trimmed product (core GlcNAc) [3] | conversion to the trimmed product (core GlcNAc) [4]
Adcetris: positive control; DAR4 ADC with antibody brentuximab and payload MMAE [reference compound] | 18 | 15 | – | –
EndoSH (protein, fusion protein EndoSH) MPSIDSLHYLSENSKKEFKEELSKAGQESQKVKEILAKAQQADKQAQELAKMKIPEKIPMKPLHGPLYGGYFRTWHDKTSDPTEKDKVNSMGELPKEVDLAFIFHDWTKDYSLFWKELATKHVPKLNKQGTRVIRTIPWRFLAGGDNSGIAEDTSKYPNTPEGNKALAKAIVDEYVYKYNLDGLDVDVEHDSIPKVDKKEDTAGVERSIQVFEEIGKLIGPKGVDKSRLFIMDSTYMADKNPLIERGAPYINLLLVQVYGSQGEKGGWEPVSNRPEKTMEERWQGYSKYIRPEQYMIGFSFYEENAQEGNLWYDINSRKDEDKANGINTDITGTRAERYARWQPKTGGVKGGIFSYAIDRDGVAHQPKKYAKQKEFKDATDNIFHSDYSVSKALKTVMLKDKSYDLIDEKDFPDKALREAVMAQVGTRKGDLERFNGTLRLDNPAIQSLEGLNKFKKLAQLDLIGLSRITKLDRSVLPANMKPGKDTLETVLETYKKDNKEEPATIPPVSLKVSGLTGLKELDLSGFDRETLAGLDAATLTSLEKVDISGNKLDLAPGTENRQIFDTMLSTISNHVGSNEQTVKFDKQKPTGHYPDTYGKTSLRLPVANEKVDLQSQLLFGTVTNQGTLINSEADYKAYQNHKIAGRSFVDSNYHYNNFKVSYENYTVKVTDSTLGTTTDKTLATDKEETYKVDFFSPADKTKAVHTAKVIVGDEKTMMVNLAEGATVIGGSADPVNARKVFDGQLGSETDNISLGWDSKQSIIFKLKEDGLIKHWRFFNDSARNPETTNKPIQEASLQIFNIKDYNLDNLLENPNKFDDEKYWITVDTYSAQGERATAFSNTLNNITSKYWRVVFDTKGDRYSSPVVPELQILGYPLPNADTIMKTVTTAKELSQQKDKFSQKMLDELKIKEMALETSLNSKIFDVTAINANAGVLKDCIEKRQLLKKGGGGSGGGGSGGGGSHHHHHHEFGGGGSGGGGSGGGGSAPAPVKQGPTSVAYVEVNNNSMLNVGKYTLADGGGNAFDVAVIFAANINYDTGTKTAYLHFNENVQRVLDNAVTQIRPLQQQGIKVLLSVLGNHQGAGFANFPSQQAASAFAKQLSDAVAKYGLDGVDFDDEYAEYGNNGTAQPNDSSFVHLVTALRANMPDKIISLYNIGPAASRLSYGGVDVSDKFDYAWNPYYGTWQVPGIALPKAQLSPAAVEIGRTSRSTVADLARRTVDEGYGVYLTYNLDGGDRTADVSAFTRELYGSEAVRTP | – | – | Full conversions | Full conversions
